The values that follow are results of earlier work, collected in US12440573B2, “Antibody-conjugates for targeting of tumours expressing PTK7” (Synaffix B.V., priority 2022, dated 2025).

Data set [1] has as its system locally advanced/metastatic, PTK7-positive NSCLC, TNBC, and platinum-resistant OvCa. To be noted: previously treated patients, administered every 2 or 3 weeks.
The test system of data set [2] is patient-derived, tumor xenograft preclinical models.

B1: PF-06647020: prior-art ADC: humanized anti-PTK7 antibody with auristatin microtubule inhibitor payload (Aur0101) (conjugate, chains of the INN, looked up)
VH: QVQLVQSGPEVKKPGASVKVSCKASGYTFTDYAVHWVRQAPGKRLEWIGVISTYNDYTYNNQDFKGRVTMTRDTSASTAYMELSRLRSEDTAVYYCARGNSYFYALDYWGQGTSVTVSS
VL: EIVLTQSPATLSLSPGERATLSCRASESVDSYGKSFMHWYQQKPGQAPRLLIYRASNLESGIPARFSGSGSGTDFTLTISSLEPEDFAVYYCQQSNEDPWTFGGGTKLEIK
modifications: Aur0101 auristatin payload
Regarding B1, in data set [1], the clinical activity entry was “preliminary clinical activity” and the safety profile entry is “tolerable safety profile”. Moreover, the tumor regression entry in data set [2] was “prolonged tumor regression”.
